The numbers were not newly measured in PMC4097889, which cites them from elsewhere.

Data set [1] deals with RXRα LBD (Homo sapiens) (UniProt P19793). Put plainly: circular dichroism.
Data set [2] shares this target. Description: ITC. (Isothermal titration calorimetry measures the heat released or taken up as one component is titrated into another.)

Chain of UniProt P19793 (P19793 227-458): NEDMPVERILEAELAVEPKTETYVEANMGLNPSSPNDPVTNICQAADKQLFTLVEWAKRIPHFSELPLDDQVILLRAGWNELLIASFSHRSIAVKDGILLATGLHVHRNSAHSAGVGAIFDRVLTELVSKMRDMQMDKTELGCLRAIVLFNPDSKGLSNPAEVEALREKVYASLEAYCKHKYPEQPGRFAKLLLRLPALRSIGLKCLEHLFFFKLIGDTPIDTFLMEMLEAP

By Kd is commonly meant a measure of binding affinity in units of concentration. For GRIP-1 peptide (from UniProt Q15596), the Kd with RXRα LBD (Homo sapiens) [1] was 0.9 µM; with RXRα LBD (Homo sapiens) [2], 0.6 µM.
